Assay results taken from paper PMC10576003 (Nature Communications, 2023).

B1: MHAS2168 (natural protein, Mycobacterium hassiacum)
chain: MSAFPQTPNRLIRPRRTSRGIAISAGGLAVLLGALDTYVVVSIVTDIMRDVGIAVNQIQRVTPIITGYLLGYIAAMPLLGRASDRFGRKLLIQISLAGFALGSVITALATNLDVLVAGRVIQGAASGALLPVTLALAADLWATHKRAAVLGGVGAAQELGAVLGPIYGIFVVWLFHHWQAVFWVNVPLALIAMVLIHISLPPRVRTEEPQRVDVTGGLLLALALGLATIGLYNAEPDGKQVLPEYGPPLIIGAVIAAVAFLVWERFARTRLLDPAGVRFRPFLIALLVSLVTGGALMVTLVNVELFGQGVLGLDQDEAVFLLARFLIALPVGALLGGWIATRVGDRAVTAVGLLIAAGGFYLIAQWPADVLESRHDLGFVSLPTLDTDLAIAGFGLGLVIAPLTSAALRVVPAAQHGIASAAVVVARMIGMLIGIAALSAWGLYRFNQYLKEQLAALPPAPADFPGGQMAGQMMRLRTATVQAYVLQYGEIFAITAGLCVFGAVLGLFIAGRREHAEESADAVDGVSNARDRAPSA
notes: C-terminal fusion: 3C protease cleavage site, GFP, His10; residues of the 3C site may be left after cleavage; also called Rv1410 homologue from Mycobacterium hassiacum; MHAS2168^OUT; not shown: GFP, C-terminal, cleaved; His10, C-terminal, cleaved

What was measured:
megabody H2 (Mb_H2) = biological target: T1, megabody H2 (Mb_H2) ( | alpaca); test: cryo-EM structure; settings: both partners purified
T1 construct: the first thirteen N-terminal residues that form the β-strand A of a nanobody, encoded by the vector pBXMBQ; not shown: His10, C-terminal, cleaved

MHAS2168 = biological target: B1; test: crystal structure; […]) at 20 °C; […]; settings: both partners purified

B1: binds (megabody H2 (Mb_H2)).

B2: nanobody H2 (Nb_H2) (VHH)
VHH: QGQLVESGGGLVQPGGSLRLSCADAGSIFNKFPMAWYRQAPGKERELVARISSGGSTNYADFVKGRFTISRDNAKSTLYLQMNSLKPEDTAMYYCARIINSASNIAYWGQGTRVTVSA
notes: alpaca-derived nanobody selected by phage display against MHAS2168; they are in PDB 8PNL chain B (and chain D); MBP and His-tag removed with 3C protease; not shown: His10, N-terminal, cleaved
B2: binds (MHAS2168).
